The values that follow come from patent US20170190774A1 (REPROPHARM, published 2017).

The term Kd denotes the free concentration of one partner at which half of the binding sites on the other are occupied at equilibrium, for simple one-to-one binding.

The target of assay [1] is T1, ovine FSH (oFSH) (ovine, UniProt P01218 25-120; P01227 20-129). Briefly: ELISA saturation binding, one site-specific binding fit in GraphPad Prism (estimate). The procedure:
(§1) The specificity of the antibodies and of the scFv thereof was studied by the ELISA technique. Each hormone evaluated was prepared at the concentration of 10 μg/ml in a 0.1M sodium carbonate buffer, pH 9.6, and distributed in a proportion of 100 μl per well on an ELISA plate. The adsorption time was 18 hours at +4° C. After five washes, the wells were treated with 100 μl of PBS supplemented with 0.1% Tween and 1% BSA for 45 minutes at 37° C., then each antibody or scFv was distributed in a proportion of 100 μl/well and incubated for one hour at 37° C. On each hormone evaluated, the antibodies and the scFvs were distributed at various concentrations according to a range of 10 to 250 μg/ml for the antibodies and of 10 to 150 or 200 μg/ml for the scFvs.

The target of assay [2] is T2, bovine LH (bLH) (bovine, UniProt P01217 25-120; P04651 21-141). The assay is described as above. The procedure: as §1
The target in assay [3] is T3, porcine FSH (pFSH) (porcine, UniProt P01219 25-120; P01228 21-129). Described as above. As to the method:
as §1

Assay [4] deals with T4, human FSH Gonal-F (recombinant human FSH, Merck Serono) (human, UniProt P01215 25-116; P01225 19-129).
T4 construct: mature; Recombinant pharmaceutical preparation; also called hFSH (Gonal F); hFSH Gonal-F
Described as above. As to the method: as §1

Assay [5] concerns the target T5, human FSH Fostimon (purified FSH extracted from urine, Laboratoire Genévrier) (human, UniProt P01215 25-116; P01225 19-129).
T5 construct: mature; Extracted pharmaceutical preparation; also called hFSH (Fostimon); hFSH Fostimon
The assay is described as above. As to the method: as §1

For assay [6], the target named is T6, ovine LH (oLH) (ovine, UniProt P01218 25-120; P01231 21-141). The assay is described as above. The procedure:
as §1

Assay [7] deals with T7, equine chorionic gonadotropin (eCG) (equine, UniProt P01220 25-120; P08751 21-169).
T7 construct: mature; Alpha/beta dimer
Described as above. As to the method:
as §1

Assay [8] concerns the target T8, porcine LH (pLH) (porcine, UniProt P01219 25-120; P01232 21-141). Described as above. The procedure:
as §1

For assay [9], the target named is T9, hCG Chorulon (human chorionic gonadotropin extracted from urine, MSD) (human, UniProt P01215 25-116; P0DN86 21-165).
T9 construct: mature; Extracted veterinary preparation
Described as above. The procedure: as §1

Assay [10] addresses T10, human FSH Puregon (recombinant human FSH, Merck Schering-Plough) (human, UniProt P01215 25-116; P01225 19-129).
T10 construct: mature; Recombinant pharmaceutical preparation; also called hFSH (Puregon); hFSH Puregon
Described as above. As to the method:
as §1

Assay [11] has as its target T11, hCG Endo 5000 (purified human chorionic gonadotropin, Schering-Plough) (human, UniProt P01215 25-116; P0DN86 21-165).
T11 construct: mature; Extracted pharmaceutical preparation
The assay is described as above. The procedure: as §1

The target of assay [12] is T2, bovine LH (bLH). Description: ELISA, hormone adsorbed on the plate, scFv titrated, anti-His HRP; (A/B)x100 relative to oFSH. The procedure: as §1
(§2) After five washes, a secondary antibody coupled to peroxidase (HRP) was distributed in a proportion of 100 μl/well and incubated for one hour at 37° C. […] For the scFvs, an anti-His Tag HRP (Ref. R93125 Life Technologies, France) was used. […] After the reaction had been stopped with 1M H₂SO₄ (50 μl/well), the strength of the colored reaction (optical density) was measured using a spectrophotometer for ELISA plates.
(§3) The percentage of cross reaction was calculated conventionally by comparing the dose-response curves obtained with the concentration range of the antibody or of the scFv.
A general note: ELISA stands for enzyme-linked immunosorbent assay.

The target in assay [13] is T3, porcine FSH (pFSH). The assay is described as above. As to the method:
as §1, §2, §3

Assay [14] addresses T4, human FSH Gonal-F (recombinant human …). The assay is described as above. The procedure:
as §1, §2, §3

Assay [15] deals with T5, human FSH Fostimon (purified FSH …). Described as above. As to the method: as §1, §2, §3
Assay [16] concerns the target T6, ovine LH (oLH). Described as above. As to the method: as §1, §2, §3
The target in assay [17] is T8, porcine LH (pLH). Described as above. The procedure:
as §1, §2, §3

Assay [18] has as its target T10, human FSH Puregon (recombinant human …). Described as above. As to the method: as §1, §2, §3
Assay [19] deals with T1, ovine FSH (oFSH). Description: ELISA saturation binding, one site-specific binding fit in GraphPad Prism (estimate); differs from Table 25.
In assay [20] the target is T1, ovine FSH (oFSH). Description: cell-based or functional assay.
The target of assay [21] is T4, human FSH Gonal-F (recombinant human …). Briefly: cell-based or functional assay.
Assay [22] concerns the target T12, β-subunit of human FSH (human, UniProt P01225 19-129).
T12 construct: mature; Isolated subunit adsorbed on the ELISA plate; also called β-s.u. hFSH
Briefly: ELISA, subunit adsorbed on the plate, antibody titrated; (A/B)x100 relative to oFSH. The procedure: as §1, §2, §3

Assay [23] deals with T13, β-subunit of ovine FSH (ovine, UniProt P01227 20-129).
T13 construct: mature; Isolated subunit adsorbed on the ELISA plate; also called β-s.u. oFSH; β-oFSH
Described as above. The procedure: as §1, §2, §3

Assay [24] concerns the target T14, α-subunit of ovine FSH (ovine, UniProt P01218 25-120). The assay is described as above. As to the method:
as §1, §2, §3

The target in assay [25] is T3, porcine FSH (pFSH). Briefly: ELISA, hormone adsorbed on the plate, antibody titrated; (A/B)x100 relative to oFSH. The procedure:
as §1, §2, §3

Assay [26] has as its target T4, human FSH Gonal-F (recombinant human …). The assay is described as above. The procedure:
as §1, §2, §3

The target in assay [27] is T5, human FSH Fostimon (purified FSH …). The assay is described as above. As to the method:
as §1, §2, §3

The target in assay [28] is T10, human FSH Puregon (recombinant human …). The description is as above. As to the method:
as §1, §2, §3

For assay [29], the target named is T12, β-subunit of human FSH. Description: ELISA, subunit adsorbed on the plate, antibody titrated; (A/B)x100 relative to oFSH. The source holds these as a separate data set.
Assay [30] has as its target T13, β-subunit of ovine FSH. The description is as above. The source holds these as a separate data set.
The target in assay [31] is T14, α-subunit of ovine FSH. The assay is described as above. The source holds these as a separate data set.

Like-named read-outs stand apart in the source and are kept apart here.

T5 sequence (P01215 25-116, chain 1 of 2): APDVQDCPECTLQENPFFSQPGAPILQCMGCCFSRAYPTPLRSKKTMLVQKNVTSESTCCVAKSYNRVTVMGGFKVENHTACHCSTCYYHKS
T5 sequence (P01225 19-129, chain 2 of 2): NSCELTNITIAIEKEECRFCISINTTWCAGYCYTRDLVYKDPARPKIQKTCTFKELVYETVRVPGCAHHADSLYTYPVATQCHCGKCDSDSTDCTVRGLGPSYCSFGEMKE
T10 sequence (P01215 25-116, chain 1 of 2): as the sequence (P01215 25-116, chain 1 of 2) above
T10 sequence (P01225 19-129, chain 2 of 2): as the sequence (P01225 19-129, chain 2 of 2) above
T4 sequence (P01215 25-116, chain 1 of 2): as the sequence (P01215 25-116, chain 1 of 2) above
T4 sequence (P01225 19-129, chain 2 of 2): as the sequence (P01225 19-129, chain 2 of 2) above
T12 sequence (P01225 19-129): as the sequence (P01225 19-129, chain 2 of 2) above
T9 sequence (P01215 25-116, chain 1 of 2, other chains not shown): as the sequence (P01215 25-116, chain 1 of 2) above
T11 sequence (P01215 25-116, chain 1 of 2, other chains not shown): as the sequence (P01215 25-116, chain 1 of 2) above
T7 sequence (P01220 25-120, chain 1 of 2): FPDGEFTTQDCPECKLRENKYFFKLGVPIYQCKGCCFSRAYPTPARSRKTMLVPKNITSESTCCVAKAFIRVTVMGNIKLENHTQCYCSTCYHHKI
T7 sequence (P08751 21-169, chain 2 of 2): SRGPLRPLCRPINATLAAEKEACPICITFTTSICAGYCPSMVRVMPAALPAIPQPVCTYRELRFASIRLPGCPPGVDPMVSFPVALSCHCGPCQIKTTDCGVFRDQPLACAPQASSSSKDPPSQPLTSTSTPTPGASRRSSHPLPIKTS

B1: CH10 scFv (scFv)
scFv: QVQLQQSGGGLVQPKGSLKLSCAASGFTFNTYAMNWVRQAPGKGLEWVARIRSKSNNYATYYADSVKDRFTISRDDSQSMLYLQMNNLKTEDTAMYYCVRQDYYGSSYFDYWGQGTTLTVSSGGGGSGGGGSGGGGSDIQMTQTPATLSVTPGDRVSLSCRASQSISDYLHWYQQKSHESPRLLIKYASQSISGIPSRFSGSGSGSDFTLSINSVEPEDVGVYYCQNGHSFPYTFGGGTKLEIKHHHHHH
notes: VH-(Gly4Ser)3-VL-His6, made in the E. coli periplasm; also called scFv derived from the CH10 antibody
Turning to B1, the Kd was 2850 nM with ovine FSH (oFSH) [1]; 1940 nM in the assay with bovine LH (bLH) [2]; 5220 nM with porcine FSH (pFSH) [3]; 1820 nM in assay [4]; 1590 nM in assay [5]; 1550 nM in the assay with ovine LH (oLH) [6]. The Kd is 1970 nM in assay [7]; 2470 nM with porcine LH (pLH) [8]; 1470 nM in assay [9]; 11500 nM in [10]; 2090 nM in [11]; 7510 nM in the assay with ovine FSH (oFSH) [19]. Further, the cross reaction in the assay with bovine LH (bLH) [12] turned out to be 52%; with porcine FSH (pFSH) [13], 175%; in [14], 32%; in assay [15], 30%; in the assay with ovine LH (oLH) [16], 68%; in the assay with porcine LH (pLH) [17] it was 63%. Besides, the cross reaction in assay [18] turned out to be 67%.

B2: CH10 monoclonal antibody (antibody, IgM, V domains shown)
VH: EVQLVESGGGLVQPKGSLKLSCAASGFTFNTYAMNWVRQAPGKGLEWVARIRSKSNNYATYYADSVKDRFTISRDDSQSMLYLQMNNLKTEDTAMYYCVRQDYYGSSYFDYWGQGTTLTVSS
VL: DIVMTQSPATLSVTPGDRVSLSCRASQSISDYLHWYQQKSHESPRLLIKYASQSISGIPSRFSGSGSGSDFTLSINSVEPEDVGVYYCQNGHSFPYTFGGGTKLEIK
notes: also called CH10 antibody; CH10 ligand
In the case of B2, the “amplification of cAMP secretion, bovine granulosa cells” value with ovine FSH (oFSH) [20] stood at 5.5 fold. Also, the “EC50 of the hFSH/CH10 complex, cAMP (GloSensor), HEK 293 cells with the human FSH receptor” value in [21] amounted to 0.317 nM. Further, the cross reaction is 40% with β-subunit of human FSH [22]; 88% with β-subunit of ovine FSH [23]; 43% in the assay with α-subunit of ovine FSH [24]; 24% with porcine FSH (pFSH) [25]; 50% in assay [26]; 100% in assay [27]. The cross reaction in assay [28] was 71%.

B3: CA5 monoclonal antibody (antibody, IgG2a, V domains shown)
VH: EVKLVESGGGLVQPGGSLRLSCATSGFTFSDFYMEWVRQPPGKRLEWIAASRNKAKDYTTEYSASVKGRFIVSRDTSQSILYLQMNALRAEDTAIYFCARDARFAYWGQGTLVTVSA
VL: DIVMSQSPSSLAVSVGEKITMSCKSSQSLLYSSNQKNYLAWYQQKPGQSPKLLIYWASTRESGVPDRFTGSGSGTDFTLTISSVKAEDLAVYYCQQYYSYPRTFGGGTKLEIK
notes: also called CA5 antibody; CA5 ligand
B3: the “EC50 of the oFSH/CA5 complex, cAMP (GloSensor), HEK 293 cells with the human FSH receptor” value with ovine FSH (oFSH) [20] was 0.283 nM. Further, the “amplification of cAMP secretion, bovine granulosa cells” value with ovine FSH (oFSH) [20] amounted to 1.3 fold. In addition, the “EC50 of the hFSH/CA5 complex, cAMP (GloSensor), HEK 293 cells with the human FSH receptor” value in [21] turned out to be 0.136 nM. In addition, the cross reaction stood at 50% with β-subunit of human FSH [29]; 80% with β-subunit of ovine FSH [30]; 6% in the assay with α-subunit of ovine FSH [31]; 134% with porcine FSH (pFSH) [25]; 128% in assay [26]; 76% in assay [27]. Further, the cross reaction in assay [28] stood at 70%.
